Laboratory results as given in US11485769B2, “Peptides and combination of peptides for use in immunotherapy and methods for generating scaffolds for the use against pancreatic cancer and other cancers” (Immatics Biotechnologies GmbH, priority 2015, dated 2022).

Biological target: HLA-A*02:01 (Homo sapiens, UniProt P04439, D140Y/D185E/D98H/E176V/E277Q/G131W/G231S/I119V/I121R/I166T/I218V/L300P/L318F/N151K/N90K/P208A/P217A/Q86G/Q94H/R138H/R169H/T345S)
Test: MHC binding assay (UV-ligand exchange, beta2m ELISA, peptide exchange yield)
Conditions: binding to HLA-A*02:01 ranged by peptide exchange yield, β2m ELISA
Text: Candidate peptides for T cell based therapies according to the present invention were further tested for their MHC binding capacity (affinity). The individual peptide-MHC complexes were produced by UV-ligand exchange, where a UV-sensitive peptide is cleaved upon UV-irradiation, and exchanged with the peptide of interest as analyzed. Only peptide candidates that can effectively bind and stabilize the peptide-receptive MHC molecules prevent dissociation of the MHC complexes. To determine the yield of the exchange reaction, an ELISA was performed based on the detection of the light chain (β2m) of stabilized MHC complexes. The assay was performed as generally described in Rodenko et al. (Rodenko et al., 2006).
96 well MAXISorp plates (NUNC) were coated over night with 2 ug/ml streptavidin in PBS at room temperature, washed 4× and blocked for 1 h at 37° C. in 2% BSA containing blocking buffer. Refolded HLA-A*02:01/MLA-001 monomers served as standards, covering the range of 15-500 ng/ml. Peptide-MHC monomers of the UV-exchange reaction were diluted 100 fold in blocking buffer. Samples were incubated for 1 h at 37° C., washed four times, incubated with 2 ug/ml HRP conjugated anti-μ2m for 1h at 37° C., washed again and detected with TMB solution that is stopped with […]. Absorption was measured at 450 nm. Candidate peptides that show a high exchange yield (preferably higher than 50%, most preferred higher than 75%) are generally preferred for a generation and production of antibodies or fragments thereof, and/or T cell receptors or fragments thereof, as they show sufficient avidity to the MHC molecules and prevent dissociation of the MHC complexes.
MHC class I binding scores. Binding of HLA-class I restricted peptides to HLA-A*02:01 was ranged by peptide exchange yield: ≥10%=+; ≥20%=++; ≥50=+++; >75%=++++

Substance	Peptide exchange (MHC class I binding score)
89 (KLADIQIEQL; listed as Homo sapiens) [compound 89]	“+++” (≥50=+++)
46 (TMVEHNYYV; listed as Homo sapiens) [compound 46]	“+++” (≥50=+++)
71 (VLLPEGGITAI; listed as Homo sapiens) [compound 71]	“+++” (≥50=+++)
50 (LLFGSDGYYV; listed as Homo sapiens) [compound 50]	“+++” (≥50=+++)
110 (ILLTGTPAL; listed as Homo sapiens) [compound 110]	“+++” (≥50=+++)
148 (YLHNQGIGV; listed as Homo sapiens) [compound 148]	“++” (≥20%=++)
105 (FLSEVFHQA; listed as Homo sapiens) [compound 105]	“+++” (≥50=+++)
9 (QIIDAINKV; listed as Homo sapiens) [compound 9]	“++” (≥20%=++)
155 (LLLDPDTAVLKL; listed as Homo sapiens) [compound 155]	“+++” (≥50=+++)
57 (RLSELGITQA; listed as Homo sapiens) [compound 57]	“+++” (≥50=+++)
56 (NLIGVTAEL; listed as Homo sapiens) [compound 56]	“++” (≥20%=++)
93 (SIDSEPALV; listed as Homo sapiens) [compound 93]	“+++” (≥50=+++)
153 (ALPKEDPTAV; listed as Homo sapiens) [compound 153]	“+++” (≥50=+++)
78 (SLQDTEEKSRS; listed as Homo sapiens) [compound 78]	“+++” (≥50=+++)
77 (RLFPGSSFL; listed as Homo sapiens) [compound 77]	“++++” (>75%=++++)
60 (SLWEDYPHV; listed as Homo sapiens) [compound 60]	“++++” (>75%=++++)
111 (LLLAAARLAAA; listed as Homo sapiens) [compound 111]	“+++” (≥50=+++)
69 (VLFSGSLRL; listed as Homo sapiens) [compound 69]	“+++” (≥50=+++)
92 (YLTNEGIAHL; listed as Homo sapiens) [compound 92]	“++++” (>75%=++++)
123 (KISTITPQI; listed as Homo sapiens) [compound 123]	“++” (≥20%=++)
145 (TTFPRPVTV; listed as Homo sapiens) [compound 145]	“+++” (≥50=+++)
95 (ALADDDFLTV; listed as Homo sapiens) [compound 95]	“+++” (≥50=+++)
